# Test results taken from IntAct's records for PubMed 16278218.
# B1: Heat shock factor protein 1 (Homo sapiens), Q00613 (parent)
# chain: MDLPVGPGAAGPSNVPAFLTKLWTLVSDPDTDALICWSPSGNSFHVFDQGQFAKEVLPKYFKHNNMASFVRQLNMYGFRKVVHIEQGGLVKPERDDTEFQHPCFLRGQEQLLENIKRKVTSVSTLKSEDIKIRQDSVTKLLTDVQLMKGKQECMDSKLLAMKHENEALWREVASLRQKHAQQQKVVNKLIQFLISLVQSNRILGVKRKIPLMLNDSGSAHSMPKYSRQFSLEHVHGSGPYSAPSPAYSSSSLYAPDAVASSGPIISDITELAPASPMASPGGSIDERPLSSSPLVRVKEEPPSPPQSPRVEEASPGRPSSVDTLLSPTALIDSILRESEPAPASVTALTDARGHTDTEGRPPSPPPTSTPEKCLSVACLDKNELSDHLDAMDSNLDNLQTMLSSHGFSVDTSALLDLFSPSVTVPDMSLPDLDSSLASIQELLSPQEPPRPPEAENSSPDSGKQLVHYTAQPLFLLDPGSVDTGSNDLPVLFELGEGSYFSEGDGFAEDPTISLLTGSEPPKAKDPTVS
# Variants of: B1
# Conditions: with mapk2_human MAPKAPK2, P49137
# mapk2_human MAPKAPK2, P49137, sequence (P49137 whole entry, looked up): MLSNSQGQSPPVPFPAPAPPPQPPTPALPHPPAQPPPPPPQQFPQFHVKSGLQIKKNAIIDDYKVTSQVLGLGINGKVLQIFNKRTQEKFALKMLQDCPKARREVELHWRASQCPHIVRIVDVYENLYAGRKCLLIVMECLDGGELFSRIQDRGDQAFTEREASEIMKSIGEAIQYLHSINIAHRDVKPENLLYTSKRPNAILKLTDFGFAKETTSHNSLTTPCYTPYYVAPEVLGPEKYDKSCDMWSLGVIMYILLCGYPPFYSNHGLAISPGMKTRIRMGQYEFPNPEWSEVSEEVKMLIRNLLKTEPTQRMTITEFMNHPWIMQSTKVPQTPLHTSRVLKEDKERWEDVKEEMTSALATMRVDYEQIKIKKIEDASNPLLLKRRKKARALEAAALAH
row,Variant,effect of a mutation on the interaction
1,S121A,increasing interaction
2,S121D,decreasing interaction
